{"source": "paper PMC8024323", "about": "“Drosophila TNFRs Grindelwald and Wengen bind Eiger with different affinities and promote distinct cellular functions” (Nature Communications, 2021)", "molecules": {"B1": {"name": "Egr^146–409 (extracellular portion of Eiger, His6-tagged) (domain or fragment, Drosophila melanogaster, UniProt Q8MUJ1-2 146-409, looked up)", "chain": "GADYEDYTDMLNKLNNAHTGTTPTSETTAEGEGETDSASSASNDDNVFDDFTSYNAHKKKQERKSRSIADVRNEEQNIQGNHTELQEKSSNEATSKESPAPLHHRRRMHSRHRHLLVRKARSEDSRPAAHFHLSSRRRHQGSMGYHGDMYIGNDNERNSYQGHFQTRDGVLTVTNTGLYYVYAQICYNNSHDQNGFIVFQGDTPFLQCLNTVPTNMPHKVHTCHTSGLIHLERNERIHLKDIHNDRNAVLREGNNRSYFGIFKV", "notes": "Cloned in a pET43 vector; Trimer by static light scattering; also called Egr/TNF; Egr extracellular domain; source: E. coli SHuffle cells, purified (HiTrap chelating Ni column, Superdex-200 SEC)"}, "B2": {"name": "Grnd^30–81 (tryptic fragment of the extracellular domain of Grindelwald) (domain or fragment, Drosophila melanogaster, UniProt Q9VJ83 30-81, looked up)", "chain": "GESRDCHGTICHPVNEFCYVATERCHPCIEVCNNQTHNYDAFLCAKECSAYK", "notes": "Grindelwald (Grnd), Drosophila melanogaster, residues 30-81; limits assigned by mass spectrometry; models hold residues 34-81 (free) and 31-81 (complex); also called Grnd-ECD; Grnd-CRD"}, "B3": {"name": "Egr^269–409 (TNF-homology domain of Eiger, tryptic fragment) (domain or fragment, Drosophila melanogaster, UniProt Q8MUJ1-2 269-409, looked up)", "chain": "DSRPAAHFHLSSRRRHQGSMGYHGDMYIGNDNERNSYQGHFQTRDGVLTVTNTGLYYVYAQICYNNSHDQNGFIVFQGDTPFLQCLNTVPTNMPHKVHTCHTSGLIHLERNERIHLKDIHNDRNAVLREGNNRSYFGIFKV", "notes": "Trimer in the crystal (threefold crystallographic symmetry); also called Egr-TNF; TNF domain of Egr"}, "B4": {"name": "Grnd^30–97 (extracellular domain of Grindelwald) (domain or fragment, Drosophila melanogaster, UniProt Q9VJ83 30-97, looked up)", "chain": "GESRDCHGTICHPVNEFCYVATERCHPCIEVCNNQTHNYDAFLCAKECSAYKTFEPLKAEMLDIQNTQ", "notes": "Grindelwald (Grnd), Drosophila melanogaster, extracellular domain, residues 30-97; pETM14 vector; His6-tag removed with PreScission protease; Monomer by static light scattering; also called wild-type Grnd^30–97; source: E. coli SHuffle B cells (NEB), purified (Ni HiTrap, PreScission, Resource-Q); not shown: His6, N-terminal, cleaved"}, "B5": {"name": "Grnd^30–97 His66Ala (domain or fragment, Drosophila melanogaster, UniProt Q9VJ83 30-97, looked up)", "chain": "GESRDCHGTICHPVNEFCYVATERCHPCIEVCNNQTANYDAFLCAKECSAYKTFEPLKAEMLDIQNTQ", "notes": "Grindelwald (Grnd), Drosophila melanogaster, extracellular domain, residues 30-97; also called His66Ala^Grnd; Grnd-His66Ala; source: E. coli SHuffle B cells, purified (as Grnd^30–97); mutation by QuikChange; not shown: His6, N-terminal, cleaved"}, "B6": {"name": "Grnd^30–97 Glu52Ala (domain or fragment, Drosophila melanogaster, UniProt Q9VJ83 30-97, looked up)", "chain": "GESRDCHGTICHPVNEFCYVATARCHPCIEVCNNQTHNYDAFLCAKECSAYKTFEPLKAEMLDIQNTQ", "notes": "Grindelwald (Grnd), Drosophila melanogaster, extracellular domain, residues 30-97; also called Glu52Ala^Grnd; Grnd-Glu52Ala; source: E. coli SHuffle B cells, purified (as Grnd^30–97); mutation by QuikChange; not shown: His6, N-terminal, cleaved"}, "B7": {"name": "Grnd^30–97 Asn67Ala (domain or fragment, Drosophila melanogaster, UniProt Q9VJ83 30-97, looked up)", "chain": "GESRDCHGTICHPVNEFCYVATERCHPCIEVCNNQTHAYDAFLCAKECSAYKTFEPLKAEMLDIQNTQ", "notes": "Grindelwald (Grnd), Drosophila melanogaster, extracellular domain, residues 30-97; also called Asn67Ala^Grnd; Grnd-Asn67Ala; source: E. coli SHuffle B cells, purified (as Grnd^30–97); mutation by QuikChange; not shown: His6, N-terminal, cleaved"}}, "key": {"[1]": {"molecular_target": "Egr^146–409 (extracellular portion of Eiger, His6-tagged) (Drosophila melanogaster) (UniProt Q8MUJ1)", "assay": "ITC; MicroCal PEAQ-ITC, 25 °C, 0.02 M Tris-HCl pH 8.0, 0.3 M NaCl; Grnd^30–97 at 100–340 μM titrated into 8 μM Egr^146–409; Wgn^78–201 at 4.5 mM titrated into 410 μM Egr^146–409; single-site fit"}, "[2]": {"molecular_target": "the molecule itself", "assay": "SEC-MALS; static light scattering, Viscotek GPCmax/TDA with a Superdex 200-10/300 increase column, 0.02 M Tris-HCl pH 8.0, 0.3 M NaCl, 5% glycerol; about 75 μL at about 2 mg/mL (Egr alone and the two complexes)"}, "Grnd^30–97 Asn67Ala": {"molecular_target": "T1, Grnd^30–97 Asn67Ala (Drosophila melanogaster, UniProt Q9VJ83 30-97, Asn67Ala)", "T1 sequence": "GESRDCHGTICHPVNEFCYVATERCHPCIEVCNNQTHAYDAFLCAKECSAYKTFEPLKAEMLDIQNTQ", "assay": "ITC"}, "Grnd^30–97 Glu52Ala": {"molecular_target": "T2, Grnd^30–97 Glu52Ala (Drosophila melanogaster, UniProt Q9VJ83 30-97, Glu52Ala)", "T2 sequence": "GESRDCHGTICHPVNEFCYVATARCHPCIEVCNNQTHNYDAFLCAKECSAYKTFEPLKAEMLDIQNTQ", "assay": "ITC"}, "Grnd^30–97 His66Ala": {"molecular_target": "T3, Grnd^30–97 His66Ala (Drosophila melanogaster, UniProt Q9VJ83 30-97, His66Ala)", "T3 sequence": "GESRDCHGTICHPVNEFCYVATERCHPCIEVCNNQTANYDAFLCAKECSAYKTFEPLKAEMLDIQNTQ", "assay": "ITC"}, "[3]": {"molecular_target": "B3", "assay": "SEC; 30 μM Egr^146–409 incubated with Grnd^30–97 in a 1:1.3 molar ratio, treated with trypsin, loaded on a Superdex-5/150 column; fractions on Coomassie SDS-PAGE", "conditions": "both partners purified"}, "[4]": {"molecular_target": "the molecule itself", "assay": "crystal structure; Egr^269–409:Grnd^30–81 complex, 2.02 Å, space group P321, one 1:1 complex per asymmetric unit, 3:3 hetero-hexamer by the crystallographic threefold axis"}, "[5]": {"molecular_target": "T4, Strep-Egr^146–409 Asn333Ala (Drosophila melanogaster, UniProt Q8MUJ1-2 146-409, Asn333 with Ala)", "T4 construct": "also called substitution of the Egr glycosylation site Asn333 with Ala; source: mutation by QuikChange", "T4 sequence (looked up)": "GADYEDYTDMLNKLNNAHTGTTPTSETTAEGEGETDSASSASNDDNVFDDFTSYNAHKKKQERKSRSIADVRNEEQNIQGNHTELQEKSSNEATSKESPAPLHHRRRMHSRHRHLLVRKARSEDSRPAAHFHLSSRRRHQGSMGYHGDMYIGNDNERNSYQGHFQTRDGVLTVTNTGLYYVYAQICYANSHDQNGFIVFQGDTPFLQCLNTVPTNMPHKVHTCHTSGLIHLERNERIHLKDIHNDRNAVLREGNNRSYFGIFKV", "assay": "pull-down; 2 μM strep-tagged Egr^146–409 adsorbed on Strep-tactin beads, 10 μM Grnd^30–97 in solution, 1 h at 4 °C, 0.01 M Hepes pH 7.5, 0.1 M NaCl, 5% glycerol, 0.05% Tween, 0.5 mM EDTA; Coomassie staining", "conditions": "both partners purified"}, "[6]": {"molecular_target": "B1", "assay": "ITC; MicroCal PEAQ-ITC, 25 °C, 0.02 M Tris-HCl pH 8.0, 0.3 M NaCl; Grnd^30–97 at 100–340 μM titrated into 8 μM Egr^146–409; Wgn^78–201 at 4.5 mM titrated into 410 μM Egr^146–409; single-site fit", "conditions": "both partners purified"}, "Strep-Egr^146–409": {"molecular_target": "T5, Strep-Egr^146–409 (Drosophila melanogaster, UniProt Q8MUJ1-2 146-409)", "T5 construct": "probably SHuffle cells as for the His6 construct", "T5 sequence (looked up)": "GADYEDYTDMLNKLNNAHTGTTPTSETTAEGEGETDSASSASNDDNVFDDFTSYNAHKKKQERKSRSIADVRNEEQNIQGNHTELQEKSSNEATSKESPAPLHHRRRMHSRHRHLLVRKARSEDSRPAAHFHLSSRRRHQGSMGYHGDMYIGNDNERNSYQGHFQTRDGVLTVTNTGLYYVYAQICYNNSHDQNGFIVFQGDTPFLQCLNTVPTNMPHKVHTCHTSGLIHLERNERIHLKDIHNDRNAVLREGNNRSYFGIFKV", "assay": "pull-down; 2 μM strep-tagged Egr^146–409 adsorbed on Strep-tactin beads, 10 μM Grnd^30–97 in solution, 1 h at 4 °C, 0.01 M Hepes pH 7.5, 0.1 M NaCl, 5% glycerol, 0.05% Tween, 0.5 mM EDTA; Coomassie staining", "conditions": "both partners purified"}}}
{"molecule": "Wgn^78–201 (whole extracellular domain of Wengen) (from UniProt Q9VWS4 78-201) (domain or fragment)", "values": [{"measurement": "Kd", "setting": "[1]", "result": 12, "unit": "µM"}]}
{"molecule": "B1", "values": [{"measurement": "stoichiometry N", "setting": "[2]", "result": 3}, {"measurement": "Kd", "setting": "Grnd^30–97 Asn67Ala", "result": 4.5, "unit": "µM"}, {"measurement": "Kd", "setting": "Grnd^30–97 Glu52Ala", "result": 1.3, "unit": "µM"}, {"measurement": "Kd", "setting": "Grnd^30–97 His66Ala", "result": 4.8, "unit": "µM"}]}
{"molecule": "B2", "values": [{"measurement": "binding result", "setting": "[3]", "result": "binds"}]}
{"molecule": "B3", "values": [{"measurement": "stoichiometry N", "setting": "[4]", "result": 3}]}
{"molecule": "B4", "values": [{"measurement": "binding result", "setting": "[5]", "result": "binds"}, {"measurement": "Kd", "setting": "[6]", "result": "~0.03", "unit": "µM"}]}
{"molecule": "B5", "values": [{"measurement": "binding result", "setting": "Strep-Egr^146–409", "result": "binds"}, {"measurement": "binding result", "setting": "[6]", "result": "binds"}]}
{"molecule": "B6", "values": [{"measurement": "binding result", "setting": "Strep-Egr^146–409", "result": "binds"}, {"measurement": "binding result", "setting": "[6]", "result": "binds"}]}
{"molecule": "B7", "values": [{"measurement": "binding result", "setting": "Strep-Egr^146–409", "result": "binds"}, {"measurement": "binding result", "setting": "[6]", "result": "binds"}]}
